# Experimental data as given in publication PMC3384344 (Nucleic Acids Research, 2012).
# Where two headings read alike, the source gives them in different places.
# B1: UmuD′, cleaved form of UmuD (homodimer UmuD′2) (natural protein)
# chain: GFPSPAADYVEQRIDLNQLLIQHPSATYFVKASGDSMIDGGISDGDLLIVDSAITASHGDIVIAAVDGEFTVKKLQLRPTVQLIPMNSAYSPITISSEDTLDVFGVVIHVVKAMR
# B2: UmuD, wild-type full-length (homodimer UmuD2) (natural protein)
# chain: MLFIKPADLREIVTFPLFSDLVQCGFPSPAADYVEQRIDLNQLLIQHPSATYFVKASGDSMIDGGISDGDLLIVDSAITASHGDIVIAAVDGEFTVKKLQLRPTVQLIPMNSAYSPITISSEDTLDVFGVVIHVVKAMR
# B3: UmuD3A (UmuD containing the triple mutation T14A, L17A and F18A) (natural protein)
# chain: MLFIKPADLREIVAFPAASDLVQCGFPSPAADYVEQRIDLNQLLIQHPSATYFVKASGDSMIDGGISDGDLLIVDSAITASHGDIVIAAVDGEFTVKKLQLRPTVQLIPMNSAYSPITISSEDTLDVFGVVIHVVKAMR
# B4: UmuD-S60A, non-cleavable full-length UmuD variant (natural protein)
# chain: MLFIKPADLREIVTFPLFSDLVQCGFPSPAADYVEQRIDLNQLLIQHPSATYFVKASGDAMIDGGISDGDLLIVDSAITASHGDIVIAAVDGEFTVKKLQLRPTVQLIPMNSAYSPITISSEDTLDVFGVVIHVVKAMR
# Key:
# [1] = target: DNA polymerase III α subunit, wild-type full-length (E. coli) (UniProt P10443); experiment: other fluorescence titration
# [2] = target: T1, DNA polymerase III α subunit truncation α1–280 (E. coli, UniProt P10443 1-280); experiment: other fluorescence titration
# [3] = target: DNA polymerase III α subunit truncation α917–1160 (E. coli, UniProt P10443 917-1160); experiment: other fluorescence titration
# [4] = target: T2, DNA polymerase III α subunit, wild-type full-length (E. coli, UniProt P10443 1-1160); experiment: other fluorescence titration
# [5] = target: T2, DNA polymerase III α subunit, wild-type …; experiment: other fluorescence titration; remark: listed apart in the source
# [6] = target: T1, DNA polymerase III α subunit truncation …; experiment: cell-based or functional assay
# [7] = target: DNA polymerase III α subunit truncation α1–975 (E. coli, UniProt P10443 1-975); experiment: other fluorescence titration
# [8] = target: DNA polymerase III α subunit truncation α1–956 (E. coli, UniProt P10443 1-956); experiment: other fluorescence titration
# cross-linking = target: the molecule itself; experiment: cross-linking
# Sequence of DNA polymerase III α subunit truncation α917–1160 (P10443 917-1160): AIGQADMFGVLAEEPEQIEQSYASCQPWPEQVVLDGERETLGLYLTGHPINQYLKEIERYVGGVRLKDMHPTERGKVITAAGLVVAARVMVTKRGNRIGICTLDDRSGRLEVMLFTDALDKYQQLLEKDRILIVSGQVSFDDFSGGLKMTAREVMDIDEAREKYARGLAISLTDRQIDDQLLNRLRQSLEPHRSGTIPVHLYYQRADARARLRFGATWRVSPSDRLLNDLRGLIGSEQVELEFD
# T1 sequence (P10443 1-280): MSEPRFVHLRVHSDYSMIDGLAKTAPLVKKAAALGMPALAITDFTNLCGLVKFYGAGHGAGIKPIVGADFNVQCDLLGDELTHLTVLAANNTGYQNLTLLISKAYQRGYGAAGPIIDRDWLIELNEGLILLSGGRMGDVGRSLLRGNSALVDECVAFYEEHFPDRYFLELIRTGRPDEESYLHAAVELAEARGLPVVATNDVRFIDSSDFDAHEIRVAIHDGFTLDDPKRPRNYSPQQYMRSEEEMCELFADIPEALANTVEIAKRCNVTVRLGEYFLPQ
# T2 sequence (P10443 whole entry): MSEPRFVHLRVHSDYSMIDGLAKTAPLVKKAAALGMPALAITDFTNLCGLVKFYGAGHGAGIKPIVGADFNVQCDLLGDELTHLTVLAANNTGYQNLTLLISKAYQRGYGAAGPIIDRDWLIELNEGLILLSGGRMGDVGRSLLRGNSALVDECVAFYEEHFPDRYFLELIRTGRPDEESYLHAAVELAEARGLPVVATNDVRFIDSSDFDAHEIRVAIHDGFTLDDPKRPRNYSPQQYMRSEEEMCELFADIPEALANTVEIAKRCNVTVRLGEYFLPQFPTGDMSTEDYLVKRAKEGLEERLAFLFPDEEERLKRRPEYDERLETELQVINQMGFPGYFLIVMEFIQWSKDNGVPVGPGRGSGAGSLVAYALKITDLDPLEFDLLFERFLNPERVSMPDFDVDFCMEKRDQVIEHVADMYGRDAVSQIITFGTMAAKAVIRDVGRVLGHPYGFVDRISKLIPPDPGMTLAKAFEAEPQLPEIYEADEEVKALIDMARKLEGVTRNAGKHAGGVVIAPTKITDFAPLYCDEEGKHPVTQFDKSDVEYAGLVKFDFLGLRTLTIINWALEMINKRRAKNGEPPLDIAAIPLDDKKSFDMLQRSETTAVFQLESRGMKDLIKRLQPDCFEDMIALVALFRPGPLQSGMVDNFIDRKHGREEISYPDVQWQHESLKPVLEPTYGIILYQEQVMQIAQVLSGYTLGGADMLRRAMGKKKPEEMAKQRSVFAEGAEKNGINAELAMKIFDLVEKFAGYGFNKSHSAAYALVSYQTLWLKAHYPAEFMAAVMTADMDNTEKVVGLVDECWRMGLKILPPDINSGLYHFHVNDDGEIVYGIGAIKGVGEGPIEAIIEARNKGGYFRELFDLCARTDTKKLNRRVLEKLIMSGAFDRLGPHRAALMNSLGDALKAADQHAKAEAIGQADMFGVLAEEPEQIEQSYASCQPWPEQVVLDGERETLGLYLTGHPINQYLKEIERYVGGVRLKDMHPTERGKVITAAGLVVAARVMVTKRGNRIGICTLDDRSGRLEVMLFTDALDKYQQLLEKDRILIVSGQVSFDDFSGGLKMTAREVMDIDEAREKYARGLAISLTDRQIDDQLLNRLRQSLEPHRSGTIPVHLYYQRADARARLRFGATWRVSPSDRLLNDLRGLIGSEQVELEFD
# Sequence of DNA polymerase III α subunit truncation α1–975 (P10443 1-975): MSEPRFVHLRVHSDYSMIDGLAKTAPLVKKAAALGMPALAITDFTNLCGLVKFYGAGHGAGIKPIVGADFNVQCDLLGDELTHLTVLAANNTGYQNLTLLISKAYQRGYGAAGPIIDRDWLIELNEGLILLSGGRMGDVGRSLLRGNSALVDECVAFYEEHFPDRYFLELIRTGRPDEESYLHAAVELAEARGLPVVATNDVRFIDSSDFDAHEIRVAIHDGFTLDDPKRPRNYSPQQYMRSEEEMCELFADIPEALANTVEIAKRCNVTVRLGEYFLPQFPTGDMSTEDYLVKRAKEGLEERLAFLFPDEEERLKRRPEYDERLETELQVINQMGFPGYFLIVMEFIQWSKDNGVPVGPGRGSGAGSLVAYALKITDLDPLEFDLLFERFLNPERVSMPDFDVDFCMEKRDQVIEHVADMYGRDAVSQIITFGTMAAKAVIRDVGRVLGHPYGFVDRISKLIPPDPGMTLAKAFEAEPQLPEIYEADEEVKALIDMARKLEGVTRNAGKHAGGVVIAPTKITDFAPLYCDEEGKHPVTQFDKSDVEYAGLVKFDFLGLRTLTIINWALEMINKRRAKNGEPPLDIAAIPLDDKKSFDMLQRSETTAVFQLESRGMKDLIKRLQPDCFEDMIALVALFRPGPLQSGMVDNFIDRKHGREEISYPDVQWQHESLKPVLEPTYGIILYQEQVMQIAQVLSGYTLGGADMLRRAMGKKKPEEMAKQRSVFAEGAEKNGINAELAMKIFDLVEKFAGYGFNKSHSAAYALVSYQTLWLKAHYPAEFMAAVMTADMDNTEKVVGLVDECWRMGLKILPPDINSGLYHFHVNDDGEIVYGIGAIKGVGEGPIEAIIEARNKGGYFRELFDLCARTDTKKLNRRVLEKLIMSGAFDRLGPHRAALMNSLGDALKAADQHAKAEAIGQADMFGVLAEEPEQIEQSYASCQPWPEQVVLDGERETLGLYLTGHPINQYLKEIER
# Sequence of DNA polymerase III α subunit, wild-type full-length (E. coli) (P10443 whole entry, the tested form may be a part): as the sequence (P10443 whole entry) above
# Sequence of DNA polymerase III α subunit truncation α1–956 (P10443 1-956): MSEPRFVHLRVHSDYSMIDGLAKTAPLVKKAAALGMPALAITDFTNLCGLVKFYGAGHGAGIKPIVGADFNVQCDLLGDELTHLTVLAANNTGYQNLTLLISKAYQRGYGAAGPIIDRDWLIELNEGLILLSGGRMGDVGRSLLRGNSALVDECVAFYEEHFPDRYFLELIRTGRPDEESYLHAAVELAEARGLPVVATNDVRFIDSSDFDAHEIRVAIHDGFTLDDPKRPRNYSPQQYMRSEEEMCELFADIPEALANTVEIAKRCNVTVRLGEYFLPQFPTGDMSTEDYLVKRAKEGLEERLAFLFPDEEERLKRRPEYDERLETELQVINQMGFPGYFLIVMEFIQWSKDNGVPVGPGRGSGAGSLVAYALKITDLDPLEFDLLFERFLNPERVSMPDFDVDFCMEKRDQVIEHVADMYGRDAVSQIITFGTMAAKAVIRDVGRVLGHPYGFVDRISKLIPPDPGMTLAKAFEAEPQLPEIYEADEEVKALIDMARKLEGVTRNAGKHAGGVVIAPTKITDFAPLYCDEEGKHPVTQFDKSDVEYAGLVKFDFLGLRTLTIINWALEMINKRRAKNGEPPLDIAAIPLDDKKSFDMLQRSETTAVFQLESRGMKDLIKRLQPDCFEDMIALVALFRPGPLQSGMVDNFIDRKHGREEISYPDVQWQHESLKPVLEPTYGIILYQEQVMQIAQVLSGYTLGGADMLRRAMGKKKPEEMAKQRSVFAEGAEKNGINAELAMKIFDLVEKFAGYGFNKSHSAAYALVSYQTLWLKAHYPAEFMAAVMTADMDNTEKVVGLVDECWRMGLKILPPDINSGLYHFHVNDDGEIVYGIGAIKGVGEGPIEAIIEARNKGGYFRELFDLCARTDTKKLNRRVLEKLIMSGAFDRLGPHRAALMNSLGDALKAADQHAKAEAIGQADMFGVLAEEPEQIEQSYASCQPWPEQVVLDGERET
Molecule,Kd [1],Kd [2],Kd [3],Kd [4],Kd [5],RecA/ssDNA-facilitated UmuD cleavage at 30°C with 0–40 µM α1–280 [6],Kd [7],Kd [8],binding result (cross-linking)
1:1 mixture of UmuD-S60A and UmuD′-S60A (from UniProt P0AG11) (complex),4.6 µM,,,,,,,,
B1,,8.6 ± 1 µM,3.8 ± 0.9 µM,10.9 ± 1.6 µM,,,,,
B2,,7.3 ± 1.4 µM,13.9 ± 5.1 µM,1.1 ± 0.6 µM,21.7 ± 11.7 µM,~4 fold more α1–280 than wild-type α,3.1 ± 1 µM,14.7 ± 1.9 µM,
B3,,9.3 ± 3.2 µM,3.4 ± 1 µM,8.7 ± 1.5 µM,,,,,
B4,,10.3 ± 4.3 µM,0.7 ± 0.3 µM,10.6 ± 2.9 µM,,,,,binds
